Patent US20150044226A1 (SBI BIOTECH, published 2015)

T1: human PLD4 (phospholipase D4) protein (UniProt Q96BZ4 1-506)
T1 chain: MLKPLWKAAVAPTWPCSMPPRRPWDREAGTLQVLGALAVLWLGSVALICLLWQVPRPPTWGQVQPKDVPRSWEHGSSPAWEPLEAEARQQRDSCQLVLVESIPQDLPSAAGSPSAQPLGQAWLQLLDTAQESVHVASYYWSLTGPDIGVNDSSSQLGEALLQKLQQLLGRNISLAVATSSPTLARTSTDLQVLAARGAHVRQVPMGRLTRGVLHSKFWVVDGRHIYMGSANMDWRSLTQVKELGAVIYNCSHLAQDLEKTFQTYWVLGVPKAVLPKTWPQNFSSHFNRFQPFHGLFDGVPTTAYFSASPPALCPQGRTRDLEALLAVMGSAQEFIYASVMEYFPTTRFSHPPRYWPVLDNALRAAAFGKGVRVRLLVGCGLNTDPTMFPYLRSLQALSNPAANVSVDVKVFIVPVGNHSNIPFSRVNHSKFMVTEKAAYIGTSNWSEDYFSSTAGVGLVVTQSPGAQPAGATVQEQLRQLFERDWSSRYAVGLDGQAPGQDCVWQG

T2: cynomolgus monkey PLD4 (cynomolgus monkey, UniProt Q96BZ4 1-506 (human entry))
T2 construct: also called cynomolgus monkey PLD4 protein; cyno PLD4
T2 chain: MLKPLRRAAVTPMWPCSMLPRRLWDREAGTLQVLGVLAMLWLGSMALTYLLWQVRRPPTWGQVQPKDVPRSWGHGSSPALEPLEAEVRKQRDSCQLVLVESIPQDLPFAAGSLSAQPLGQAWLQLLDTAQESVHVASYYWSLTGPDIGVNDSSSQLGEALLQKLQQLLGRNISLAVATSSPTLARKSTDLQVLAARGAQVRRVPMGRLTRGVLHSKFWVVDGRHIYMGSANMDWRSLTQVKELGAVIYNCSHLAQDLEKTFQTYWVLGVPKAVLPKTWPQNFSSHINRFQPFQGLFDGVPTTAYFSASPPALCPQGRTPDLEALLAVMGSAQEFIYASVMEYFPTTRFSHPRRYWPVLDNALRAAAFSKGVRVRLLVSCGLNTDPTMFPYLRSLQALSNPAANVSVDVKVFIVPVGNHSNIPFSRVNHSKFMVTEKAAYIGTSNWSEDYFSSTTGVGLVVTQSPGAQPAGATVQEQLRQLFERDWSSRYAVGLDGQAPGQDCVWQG

T3: rhesus monkey PLD4 (rhesus monkey, UniProt Q96BZ4 1-506 (human entry))
T3 construct: also called rhesus monkey PLD4 protein
T3 chain: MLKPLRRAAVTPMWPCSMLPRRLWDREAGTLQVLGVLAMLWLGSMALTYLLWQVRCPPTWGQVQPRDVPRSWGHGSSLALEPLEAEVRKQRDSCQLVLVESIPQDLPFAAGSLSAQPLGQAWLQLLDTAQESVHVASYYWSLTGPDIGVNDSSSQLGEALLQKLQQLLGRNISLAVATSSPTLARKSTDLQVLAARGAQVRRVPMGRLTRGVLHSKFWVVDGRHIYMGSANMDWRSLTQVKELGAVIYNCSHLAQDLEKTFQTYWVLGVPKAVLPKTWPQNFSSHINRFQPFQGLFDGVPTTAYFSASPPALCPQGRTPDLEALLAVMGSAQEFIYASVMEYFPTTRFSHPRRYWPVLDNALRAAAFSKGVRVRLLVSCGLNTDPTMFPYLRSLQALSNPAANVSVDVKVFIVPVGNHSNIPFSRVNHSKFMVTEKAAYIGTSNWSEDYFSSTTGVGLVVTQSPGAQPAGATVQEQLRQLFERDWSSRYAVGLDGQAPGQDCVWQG

T4: human PLD4 (phospholipase D4) protein (human, UniProt Q96BZ4 1-506)
T4 construct: Type II transmembrane protein, 506 a.a; also called hPLD4; HuPLD4
T4 sequence: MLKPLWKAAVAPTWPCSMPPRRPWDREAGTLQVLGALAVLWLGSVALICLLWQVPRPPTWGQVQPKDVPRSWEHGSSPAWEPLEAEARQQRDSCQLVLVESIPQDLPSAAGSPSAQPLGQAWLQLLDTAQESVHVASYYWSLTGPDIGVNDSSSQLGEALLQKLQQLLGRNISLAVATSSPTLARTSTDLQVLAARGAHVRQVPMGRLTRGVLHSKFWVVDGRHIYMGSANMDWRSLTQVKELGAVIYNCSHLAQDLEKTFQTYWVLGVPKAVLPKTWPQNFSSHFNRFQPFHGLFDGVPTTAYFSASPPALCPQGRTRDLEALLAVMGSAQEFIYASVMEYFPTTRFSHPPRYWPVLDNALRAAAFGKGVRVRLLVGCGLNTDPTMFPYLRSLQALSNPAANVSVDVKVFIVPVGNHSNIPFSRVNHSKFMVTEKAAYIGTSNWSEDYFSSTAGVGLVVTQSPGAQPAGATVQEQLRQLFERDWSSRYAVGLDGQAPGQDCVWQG

B1: anti-PLD4 mouse 10C3 antibody (antibody, mouse IgG2a, V domains shown)
VH: EVQLVESGGDLVRPGGSLKLSCAASGFSFSSYGMSWFRQTPDKRLEWVATISSGGSYIYYPESVKGRFTISRDNARNILYLQMSSLKSEDTAMYYCVRLYGGRRGYGLDYWGQGTSVTVSS
VL: EIVMTQAAFSNPVTLGTSASISCRSSKSLLHSDGITYLYWYLQKPGQSPQLLIYQMSNLASGVPDRFSSSGSGTDFTLRISRVEAEDVGVYYCAQNLELYTFGGGTKLEIKR
notes: Tested as hybridoma culture supernatant and as purified antibody
B2: anti-PLD4 mouse 11D10 antibody (antibody, mouse IgG2b, V domains shown)
VH: EVQLVESGGDLVRPGGSLKLSCAASGFSFSSYGMSWFRQTPDKRLEWVATISSGGSYIYYPESVKGRFTISRDNARNILYLQMSSLKSEDTAMYYCVRLYGGRRGYGLDYWGQGTSVTVSS
VL: EIVMTQAAFSNPVTLGTSASISCRSSKSLLHSDGITYLYWYLQKPGQSPQLLIYQMSNLASGVPDRFSSSGSGTDFTLRISRVEAEDVGVYYCAQNLELYTFGGGTKLEIKR
notes: as for B1
B3: anti-PLD4 mouse 3B4 antibody (antibody, V domains shown)
VH: EVQLQQSGTVLSRPGASVTMSCKASGDSFTTYWMHWVKQRPGQGLEWIGAIYPGNSETSYNQKFKGKAKLTAVTSASTAYMEFTSLTNEDSAVYYCTGGYSDFDYWGQGTTLTVSS
VL: DILMTQSPSSMSVSLGDTVSITCHASQGIRSNIGWLQQKPGKSFKGLIFHGTNLEDGVPSRFSGRGSGADYSLTINSLESEDFADYYCVQYVQFPPTFGSGTKLEIRR
notes: Tested as hybridoma culture supernatant and as protein A purified antibody
B4: anti-PLD4 mouse 8C11 antibody (antibody, mouse IgG2b, V domains shown)
VH: QVQLQQSGAELVKPGASVKLSCKASGYTFTSYYLYWVRQRPGQGLEWIGLINPTNSDTIFNEKFKSKATLTVDKSSSTAYMQLSSLTSEDSAVYYCTREGGYGYGPFAYWGQGTLVTVSA
VL: DVVMTQTPLSLPVSLGDQASISCTSSQTLVHSNGNTYLHWYLQKPGQSPKLLIYKVSNRFSGVPDRFSGSGSGTDFTLKISRVEAEDLGVYFCSHSTHVPFTFGSGTKLEIKR
notes: as for B1

Key:
[1] = target: T1, human PLD4 (phospholipase D4) protein; experiment: binding to human PLD4-CT125 stable cells; apparent Kd
[2] = target: T2, cynomolgus monkey PLD4; experiment: FACS, hybridoma culture supernatant on cynomolgus monkey PLD4-CT125 cells; non-binding implied (10C3 is not among the seven)
[3] = target: T3, rhesus monkey PLD4; experiment: FACS, hybridoma culture supernatant on rhesus monkey PLD4-293T transient transfectants; non-binding implied (10C3 is not among the seven)
[4] = target: T4, human PLD4 (phospholipase D4) protein; experiment: FACS titration (0.001 to 30 µg/mL) of purified antibody on human PLD4-CT125 cells, positive cell frequency fitted with GraphPad Prism (FIG. 19)
Protocol: For binding ability of the purified antibody, human PLD4-CT125 expression stable cell strain was reacted to nearly 100% of the positive staining rate at low concentration to high concentration (0.001 μg/mL to 30 μg/mL) of purified PLD4 antibody concentration. The frequency of staining positive cell and the antibody were data-analyzed using Graph Pad Prism version 5 software, and the dissociation constant molar concentration (Kd value) was computed in nM unit.

[5] = target: T2, cynomolgus monkey PLD4; experiment: FACS, hybridoma culture supernatant on cynomolgus monkey PLD4-CT125 cells; non-binding implied (11D10 is not among the seven)
[6] = target: T3, rhesus monkey PLD4; experiment: FACS, hybridoma culture supernatant on rhesus monkey PLD4-293T transient transfectants; non-binding implied (11D10 is not among the seven)
[7] = target: T2, cynomolgus monkey PLD4; experiment: FACS on cynomolgus monkey PLD4-CT125 cells (FIG. 16)
[8] = target: T3, rhesus monkey PLD4; experiment: FACS, hybridoma culture supernatant on rhesus monkey PLD4-293T transient transfectants (FIG. 17)
[9] = target: T2, cynomolgus monkey PLD4; experiment: FACS, hybridoma culture supernatant on cynomolgus monkey PLD4-CT125 cells; non-binding implied (8C11 is not among the seven)
[10] = target: T3, rhesus monkey PLD4; experiment: FACS, hybridoma culture supernatant on rhesus monkey PLD4-293T transient transfectants; non-binding implied (8C11 is not among the seven)

| Binder | Kd [1] | binding result [2] | binding result [3] | Kd [4] | binding result [5] | binding result [6] | binding result [7] | binding result [8] | binding result [9] | binding result [10] |
| --- | --- | --- | --- | --- | --- | --- | --- | --- | --- | --- |
| B1 | 0.228 nM | no binding | no binding | ≤ 1 nM | – | – | – | – | – | – |
| B2 | 0.192 nM | – | – | ≤ 1 nM | no binding | no binding | – | – | – | – |
| B3 | 2.12 nM | – | – | > 1 nM | – | – | binds | binds | – | – |
| B4 | 0.085 nM | – | – | ≤ 1 nM | – | – | – | – | no binding | no binding |
